Measured values as given in doi:10.1101/2024.12.09.627598.

Target: TLR5^N14, a truncated human TLR5 construct containing only the D1-domain binding sites (human) (UniProt O60602)
Experiment: SPR

Sequence of UniProt O60602 (O60602 21-639): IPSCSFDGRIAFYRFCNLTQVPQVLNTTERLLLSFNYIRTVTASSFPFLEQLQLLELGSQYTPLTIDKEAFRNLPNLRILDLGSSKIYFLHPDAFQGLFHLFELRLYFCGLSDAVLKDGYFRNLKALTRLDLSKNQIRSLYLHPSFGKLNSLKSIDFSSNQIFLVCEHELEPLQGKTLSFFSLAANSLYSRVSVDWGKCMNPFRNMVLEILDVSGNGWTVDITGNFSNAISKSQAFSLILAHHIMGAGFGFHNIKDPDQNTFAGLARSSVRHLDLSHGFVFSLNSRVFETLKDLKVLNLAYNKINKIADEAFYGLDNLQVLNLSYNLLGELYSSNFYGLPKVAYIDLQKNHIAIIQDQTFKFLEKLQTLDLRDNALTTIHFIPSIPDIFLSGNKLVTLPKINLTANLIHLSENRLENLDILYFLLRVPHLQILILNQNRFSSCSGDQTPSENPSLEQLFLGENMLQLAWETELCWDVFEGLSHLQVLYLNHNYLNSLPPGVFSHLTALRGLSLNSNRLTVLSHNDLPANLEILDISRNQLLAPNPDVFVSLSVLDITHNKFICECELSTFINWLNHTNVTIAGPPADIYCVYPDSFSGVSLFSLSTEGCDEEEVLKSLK

Substance | kon [M⁻¹ s⁻¹] | Kd [nM] | koff [s⁻¹]
RhFlaB-PIM, primary interface mutant of RhFlaB (Q88A, R89A, Q96A) (from UniProt G2T5W2 1-506) (natural protein) | 9090 | 78 | 0.000691
StFliC, flagellin FliC of Salmonella enterica serovar Typhimurium, wild type (from UniProt P06179 1-495) (natural protein) | 11300 | 16.3 | 0.000192
StFliC-PIM, primary interface mutant of StFliC (Q89A, R90A, Q97A) (natural protein) | 18800 | 585 | 0.011

Further lines, with some results ahead:

kon [M⁻¹ s⁻¹] | Substance | Kd [nM] | koff [s⁻¹]
45200 | RhFlaB, flagellin FlaB of Roseburia hominis, wild type (recombinant) (from UniProt G2T5W2 1-506) (natural protein) | 11.4 | 0.000555
75500 | RhFlaB-ΔD0, RhFlaB truncated to remove the D0 domain (domain or fragment) |  | 
